Results reported in publication PMC314469, “Protein Interaction Networks by Proteome Peptide Scanning” (PLoS Biology, 2004).

B1: 326-339 " involved in silencing at telomeres, HML, and HMR" (peptide)
chain: NKVPTNPKKFKKAP
B2: 61-74 Hypothetical ORF (peptide)
chain: NLDPNPPVRGENLT
B3: 548-561 " Non-membrane-embedded, PEST sequence-containing protein" (peptide)
chain: NLKPERPSKVSFEM
B4: 189-202 Product of gene unknown (peptide)
chain: NMVPLNPNRIIPDE
B5: 198-211 Hypothetical ORF (peptide)
chain: NNNPVPPQKINQPP
B6: 173-186 Hypothetical ORF (peptide)
chain: NSLPSSPKKQPARN
B7: 22-35 Hypothetical ORF (peptide)
chain: NSPPVYPKRIRHFE
B8: 76-89 Hypothetical ORF (peptide)
chain: NVDPASPWRHELLS
B9: 634-647 Hypothetical ORF (peptide)
chain: NVQPRKPSRVHSRN
B10: 239-252 Hypothetical ORF (peptide)
chain: NYIPPDPPKDIQLN
B11: 302-315 contains 9 or 10 putative membrane spanning regions; putative Ca2+ binding protein (homology to EF-hand Ca2+ binding sit (peptide)
chain: PFIPKFPSRESVES
B12: 35-48 succinate dehydrogenase membrane anchor subunit (peptide)
chain: PFLPVLPQKPGGVR
B13: 537-550 Hypothetical ORF (peptide)
chain: PIMPTLPPRPYITI
B14: 27-40 Hypothetical ORF (peptide)
chain: PKDPSSPQRDEILT
B15: 311-324 Hypothetical ORF (peptide)
chain: PLIPDNPGRLLSSK
B16: 535-548 serine/threonine protein kinase (peptide)
chain: PLPPIPPTKSKTSP
B17: 87-100 35 kDa mitochondrial ribosomal small subunit protein (peptide)
chain: PLQPRPPVKPLSKQ
B18: 285-298 ubiquitin carboxyl-terminal hydrolase (peptide)
chain: PNEPGAPSRLSFEN
B19: 1337-1350 transcriptional regulator (peptide)
chain: PNSPTPPLKSKVSR
B20: 66-79 Similar to ubiquitin conjugating protein family (peptide)
chain: PNYPDSPPKVTFIS
B21: 169-182 origin recognition complex subunit 2 (peptide)
chain: PPEPATPSKKSLTT
B22: 477-490 Hypothetical ORF (peptide)
chain: PPPPPPPSRKSGTP
B23: 943-956 negative regulator of early meiotic gene expression (peptide)
chain: PPVPKAPSRRSSSL

Target: Sho1 SH3 (SHO1_YEAST), P40073
Experiment: SPOT array

Chain of Sho1 SH3 (SHO1_YEAST), P40073 (P40073 295-366): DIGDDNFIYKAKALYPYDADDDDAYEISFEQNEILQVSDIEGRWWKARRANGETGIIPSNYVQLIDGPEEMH

| Binder | normalised SPOT signal, Boehringer light units (BLU); mean over the file's lines of this peptide |
| --- | --- |
| B1 | 291 |
| B2 | 206 |
| B3 | 339 |
| B4 | 130 |
| B5 | 190 |
| B6 | 198 |
| B7 | 177 |
| B8 | 102 |
| B9 | 82.5 |
| B10 | 38.1 |
| B11 | 163 |
| B12 | 1380 |
| B13 | 228 |
| B14 | 130 |
| B15 | 83.2 |
| B16 | 900 |
| B17 | 85.4 |
| B18 | 85.1 |
| B19 | 144 |
| B20 | 187 |
| B21 | 46 |
| B22 | 261 |
| B23 | 144 |
